In patent US20170334958A1:

Target: tumor necrosis factor-α (TNF-α) (human) (UniProt P01375)
Assay: 35S free protein + biotin-TNF-α in solution, biotin capture membrane, phosphorimaging

Chain of tumor necrosis factor-α (TNF-α) (human) (P01375 77-233 limits assumed): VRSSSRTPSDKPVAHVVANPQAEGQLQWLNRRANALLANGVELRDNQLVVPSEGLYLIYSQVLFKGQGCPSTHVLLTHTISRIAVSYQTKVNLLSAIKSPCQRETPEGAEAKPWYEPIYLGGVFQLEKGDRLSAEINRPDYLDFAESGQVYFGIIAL

B1: T14.06 (designed binder)
chain: VSDVPRDLEVVAATPTSLLISWTRTNASTRYYRITYGETGGNSPVQEFTVPNFWWTATISGLKPGVDYTITVYAVTSPDETSAYSEPISINYRT
**Q.** With B1 as the binder, how does the Kd read?
**A.** 1.4 nM
